Values quoted from earlier work, collected in publication PMC6776250.

Molecular target: RNase Y (Bacillus subtilis) (UniProt O31774)
Test: SPR

Chain of UniProt O31774 (O31774 whole entry): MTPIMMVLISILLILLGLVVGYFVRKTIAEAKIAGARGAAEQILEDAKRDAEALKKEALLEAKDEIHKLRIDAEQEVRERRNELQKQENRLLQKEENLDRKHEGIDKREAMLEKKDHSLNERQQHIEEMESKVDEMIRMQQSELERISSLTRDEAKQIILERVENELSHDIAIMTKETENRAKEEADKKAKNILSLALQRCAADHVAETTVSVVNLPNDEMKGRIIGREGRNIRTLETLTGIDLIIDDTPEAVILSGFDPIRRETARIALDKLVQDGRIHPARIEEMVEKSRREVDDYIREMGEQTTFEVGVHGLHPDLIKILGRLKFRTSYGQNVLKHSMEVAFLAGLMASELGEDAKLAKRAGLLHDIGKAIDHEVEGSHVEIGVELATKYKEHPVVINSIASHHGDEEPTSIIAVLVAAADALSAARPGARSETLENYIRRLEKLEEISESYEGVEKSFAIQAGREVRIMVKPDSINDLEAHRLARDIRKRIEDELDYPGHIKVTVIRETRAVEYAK

Kd: 5 nM
Substance: PNPase (from UniProt P50849)
